In patent US11396552 (DIABETES FREE, dated 2022):
Positions count from the first letter of the chain named.

B1: PG102 wild-type recombinant antibody (antibody, human IgG4 S228P, kappa, V domains shown)
VH: QVKLQESGPGLVKPSETLSITCTVSGFSLSRYSVYWIRQPPGKGPEWMGMMWGGGSTDYSTSLKSRLTISKDTSKSQVSLKMNSLRTDDTAMYYCVRTDGDYWGQGTTVTVSS
VL: ELQLTQSPLSLPVTLGQPASISCRSSQSLANSNGNTYLHWYLQRPGQSPRLLIYKVSNRFSGVPDRFSGSGSGTDFTLKISRVEAEDVGVYYCSQSTHVPWTFGGGTKLEIKR
notes: Human IgG4pro(deltaK) heavy, kappa light; also called PG102_Wt; PG102 wt
B2: PG102_Var7 (antibody, human IgG4 S228P, kappa, V domains shown)
VH: QVQLQESGPGLVKPSQTLSLTCTVSGFSLSRYSVYWVRQPPGKGLEWIGMMWGGGSTDYNPSLKSRLTISKDTSKSQVSLKLSSLTAADTAVYYCVRTDGDYWGQGTLVTVSS
VL: B1 VL with N31S, N33Q
notes: IgG4pro(deltaK)/kappa; also called FFP104_Var7
B3: PG102_Var5 (antibody, human IgG4 S228P, kappa, V domains shown)
VH: B1 VH with K3Q, N83S, R86T, T87A, D88A, M92V, T108L
VL: B1 VL with N31S, N33Q
notes: IgG4pro(deltaK)/kappa; also called FFP104_Var5
B4: PG102_Var8 (antibody, human IgG4 S228P, kappa, V domains shown)
VH: QVQLVESGGGLVKPGGSLRLSCAVSGFSLSRYSVYWIRQAPGKGLEWMGMMWGGGSTDYSTSVKGRFTISKDNAKTSVYLQMSSLRAEDTAVYYCVRTDGDYWGQGTLVTVSS
VL: B1 VL with N31S, N33Q
notes: IgG4pro(deltaK)/kappa; also called FFP104_Var8
B5: PG102_Var16 (antibody, human IgG4 S228P, kappa, V domains shown)
VH: B4 VH
VL: B1 VL with E1D, L2I, Q3V, L4M, L15P, N31S, N33Q, R44K
notes: IgG4pro(deltaK)/kappa; also called FFP104_Var16
B6: PG102_Var15 (antibody, human IgG4 S228P, kappa, V domains shown)
VH: B2 VH
VL: B1 VL with E1D, L2I, Q3V, L4M, L15P, N31S, N33Q, R44K
notes: IgG4pro(deltaK)/kappa; also called FFP104_Var15
B7: PG102_Var14 (antibody, human IgG4 S228P, kappa, V domains shown)
VH: B2 VH with Q16E, L20I, I48M, N60S, P61T, L82M
VL: B1 VL with E1D, L2I, Q3V, L4M, L15P, N31S, N33Q, R44K
notes: IgG4pro(deltaK)/kappa; also called FFP104_Var14
B8: PG102_Var11 (antibody, human IgG4 S228P, kappa, V domains shown)
VH: B2 VH
VL: B1 VL with N31D, N33Q
notes: IgG4pro(deltaK)/kappa; also called FFP104_Var11
B9: PG102_Var6 (antibody, human IgG4 S228P, kappa, V domains shown)
VH: B2 VH with Q16E, L20I, I48M, N60S, P61T, L82M
VL: B1 VL with N31S, N33Q
notes: IgG4pro(deltaK)/kappa; also called FFP104_Var6
B10: PG102_Var13 (antibody, human IgG4 S228P, kappa, V domains shown)
VH: B1 VH with K3Q, N83S, R86T, T87A, D88A, M92V, T108L
VL: B1 VL with E1D, L2I, Q3V, L4M, L15P, N31S, N33Q, R44K
notes: IgG4pro(deltaK)/kappa; also called FFP104_Var13
B11: PG102_Var10 (antibody, human IgG4 S228P, kappa, V domains shown)
VH: B2 VH with Q16E, L20I, I48M, N60S, P61T, L82M
VL: B1 VL with N31D, N33Q
notes: IgG4pro(deltaK)/kappa; also called FFP104_Var10
B12: PG102_Var2 (antibody, human IgG4 S228P, kappa, V domains shown)
VH: B2 VH with Q16E, L20I, I48M, N60S, P61T, L82M
VL: B1 VL with N31S, N33S
notes: IgG4pro(deltaK)/kappa; also called FFP104_Var2
B13: PG102_Var9 (antibody, human IgG4 S228P, kappa, V domains shown)
VH: B1 VH with K3Q, N83S, R86T, T87A, D88A, M92V, T108L
VL: B1 VL with N31D, N33Q
notes: IgG4pro(deltaK)/kappa; also called FFP104_Var9
B14: PG102_Var1 (antibody, human IgG4 S228P, kappa, V domains shown)
VH: B1 VH with K3Q, N83S, R86T, T87A, D88A, M92V, T108L
VL: B1 VL with N31S, N33S
notes: IgG4pro(deltaK)/kappa; also called FFP104_Var1
B15: PG102_Var4 (antibody, human IgG4 S228P, kappa, V domains shown)
VH: B4 VH
VL: B1 VL with N31S, N33S
notes: IgG4pro(deltaK)/kappa; also called FFP104_Var4
B16: PG102_Var12 (antibody, human IgG4 S228P, kappa, V domains shown)
VH: B4 VH
VL: B1 VL with N31D, N33Q
notes: IgG4pro(deltaK)/kappa; also called FFP104_Var12
B17: PG102_Var3 (antibody, human IgG4 S228P, kappa, V domains shown)
VH: B2 VH
VL: B1 VL with N31S, N33S
notes: IgG4pro(deltaK)/kappa; also called FFP104_Var3

Experiments:
[1] = target: CD40 on peripheral blood mononuclear cells (PBMC) from healthy donors (human, UniProt P25942 21-277); test: cell-based or functional assay
Chain of CD40 on peripheral blood mononuclear cells (PBMC) from healthy donors (P25942 21-277): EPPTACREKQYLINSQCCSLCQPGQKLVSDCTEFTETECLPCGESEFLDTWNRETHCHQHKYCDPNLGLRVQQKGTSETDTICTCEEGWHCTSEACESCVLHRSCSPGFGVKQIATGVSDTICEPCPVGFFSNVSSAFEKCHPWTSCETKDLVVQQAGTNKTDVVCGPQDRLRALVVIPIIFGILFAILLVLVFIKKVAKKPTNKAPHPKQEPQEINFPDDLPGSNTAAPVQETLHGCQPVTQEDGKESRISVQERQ

recombinant CD40 = target: T1, recombinant CD40 (human, UniProt P25942 21-193, limits assumed); test: ELISA, plates coated with recombinant CD40, AP-conjugated anti-human kappa detection; effective concentration in supernatant read on a PG102 reference curve
T1 construct: the ELISA method itself names no species or construct; also called antigen CD40
T1 sequence (P25942 21-193 limits assumed): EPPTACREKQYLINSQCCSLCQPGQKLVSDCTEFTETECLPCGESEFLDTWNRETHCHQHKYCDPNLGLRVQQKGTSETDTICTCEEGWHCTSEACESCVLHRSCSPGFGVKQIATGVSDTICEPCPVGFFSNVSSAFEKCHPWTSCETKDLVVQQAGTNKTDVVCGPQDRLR
Protocol: Binding of the antibody variants to CD40 was measured using an ELISA based assay based on UKSL-2057. Microtiter plates were coated with recombinant CD40 before the antibody variants were added and detected using an alkaline phosphatase conjugated antihuman kappa IgG.
Samples were then prepared and analyzed The results were converted to effective concentrations in the clarified supernatant […] This assay provides an assessment of the affinity of the antibody variants for CD40.

| Binder | Percentage inhibition of TNF secretion at 1 ng/ml [1] | Percentage inhibition of TNF secretion at 10 ng/ml [1] | CD40 binding (recombinant CD40) |
| --- | --- | --- | --- |
| B1 | -5.2% | 81.2% | 14.6 mg/L |
| B2 |  |  | 33.6 mg/L |
| B3 | 22.5% | 87.4% | 34.9 mg/L |
| B4 |  |  | 23.5 mg/L |
| B5 |  |  | 20.7 mg/L |
| B6 |  |  | 29.4 mg/L |
| B7 | 21.8% | 85.5% | 23 mg/L |
| B8 |  |  | 12.6 mg/L |
| B9 | 16.6% | 86% | 39.7 mg/L |
| B10 |  |  | 22.8 mg/L |
| B11 | 14.4% | 75.8% | 4.35 mg/L |
| B12 | 20.2% | 87.2% | 30.1 mg/L |
| B13 |  |  | 17 mg/L |
| B14 | -0.9% | 81.8% | 34.9 mg/L |
| B15 |  |  | 29.5 mg/L |
| B16 |  |  | 2.35 mg/L |
| B17 | 16.1% | 88.5% | 38.5 mg/L |
